The NTF2 design screens of Basanta et al. (2020)

Experiment: protease stability score; higher = more stable; yeast display proteolysis, trypsin and chymotrypsin;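 also: log10 excess protease needed over predicted unfolded state with 0 meaning unfolded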

First: DEEREVKKRIKHIIRVLENGDEDRAEELADPNTTARVGDKRVHGMNNYMRELARKARRADHVEVTIKHMDLNGEKFDIRLHIVIHVDGRREKFDLRFVITRQGDKHVAVDVQVS
Second: DDEKREKILKTFVDLFMNGDEEDIQRMMDENARASVGDKTYHGQEQVNKALKEIRDQFDRVEVKHIHVSGDKFRINMVINVNGKHVHVEVEISVHNGRIHEISFDPEHLTKMRN
The protease stability score of the first is higher: 1.47 for the first, 0.444 for the second.

First: DEEEVKDLDRRLQEAMKTNDPDQMQRLVDENVTASYGDKEVTGREEFKKNNRELLKRVDHVNIHDVTVSGEEMVLDASVKHDGREHRIRVRAVVRDGRIKSLKIHDG
Second: DEERSNLVESVFRALEHNDEKRLNELFDPNVNVQIGDDKIRGREELVKFMRTLKRQMRIRYRTMDLHVQGDKVVVRATFEVNVNGTPHNVTMEFHAEVHNGKFKHARIKIPEEKLKTMQS
The protease stability score of the first is lower: 0.494 for the first, 1.57 for the second.

Compared with “DEQLRDRVTQLFKVWQTGDPKKVSEMFDKDARLEYGDKTVHGMEEARHQQDTRRREARLSLDIRSINVQGNQVEIDVRIEEDENGKPDTKQVTIRIRARNGRIHNAKLQDDG”, “DEQKQRDFAHTYKDVFNTGDPDEQRKMVDPNARAQVGDNDFHGDEEFDKWAEERRDRVDHVEIRSMSVHGNKVSMDVDVVYDGRRVRFSMRMEYHNGRFKHFKVNPDSQRKLEG” is higher in protease stability score: 0.1 for the first, 0.615 for the second.

Compared with “EKEAKTLAHHVMEALEKNDPDQMDEQLDENARVQVGDREVHGREEVNKQIKRLKKHAHFEIESVTLDVQGDKVDAQYTMRADVNGKPWRDHVTVEIHVRNGRIKELRFRMDPQRLRDFKK”, “DEEELKTAETNIRTGNFDDLSKQADENVNVQVGEKTIQGREEFNKVAHHLQKDVDHFEVKHVHNQGDQVNAEAVFVVDGKDLSFNMQMKMHNGRVKSVVFRATDETILRTYKEMLR” is lower in protease stability score: 0.72 for the first, -0.152 for the second.

First: DDEAKDIVEEVVREGDFRQHMRLADEDAKLEYGDKRLHGRERVSDMAQKINERVDHLEVESVSVRGEEVIITLVLNVDGQKFRMKLVMDVQGDKIKSVKLEARTEDNKKLMDRAFS
Second: EEELNKVFEDLLEAEKTGDPDKIMRYFDPNARVSYGDKHIHGREEIRKDADRRKEHMRRDIHDYRIDARGDKVRFTADFTQTHNGQPRRHRMRMEVRVKGDKFRHFRIDEDG
The protease stability score of the first is lower: 0.012 for the first, 0.083 for the second.

Compared with “DKEALRVFEKMLQAQRTGNPQEVRKQVDENARFQVGDKTIQGRERFAEDVDRQRKNMRLDYKHIDNKDHNGQAQADAKVRVNVNGRPIEHSAQFHFSAHNGKLVQLHVQMDEDVRRQIEK”, “DDEAQRIVHKFVRAMQTNDPDSVEKLLDKNARIEYGDKTIHGNSQAREEVEKTKNQARFQIDSYRVQEEPGRAVLDQKVTFRINGQPDQMRHTLYFDFHNGRVTNLHMHIDEDDYQRHRG” is higher in protease stability score: -0.233 for the first, -0.019 for the second.

Going from “DEEEAKRQMEEFAHGDPDKMVNNVDENADAVVGDRRFHGRKDIKEWAERMKKRIDTNKYEHVEQQGDKVDAIYNITVNGQELRFKLVIKIDNGRVEYVKVDVTDEENLKILQEIFS” to “DEEKKANHFNKEFDRNVQRNNETELRKMVDPNARVNVGEQNYSGRNKMVKIITDWLRKYDKFTIDVRRIDVHGNRIFIDFEMVVVSNGQRRTTEIRVVVEEHNGRLHIRVWEIT”, the protease stability score rises from 0.121 to 0.516.

Going from “DDEKVQKAAHNLIQAIKSGDEDRMRKLMDPNVRVVVGDKEVSGSDDAARFLRELRERVDHVEVKRVEAHNGRIKIDAVNRHNGHDHRFVLEAEVHNGTVKQIRIKEQ” to “DEEEAKEMMEKWMKIVEKGDSDKAQKIYKPNVVWENVDKKTQGVKQVKEMVKRIKDQGMEFQVRRAEVEGNTVEVQYDVRIGNTTVTFKVQVKAEGGRIDEVRVELDETAVKQLKKG”, the protease stability score falls from 1.43 to 0.31.

Compared with “DDTAAEVLKEQLDVLKQGDPDRVNQLVDPNAKRHVGDKNYRGMNSMADEDAQKMRNSRIKYTHWEQERSGDKVRVVVVYIEDHNGEPDTHRREFVFKASNGRFHQLNQDDDQ”, “EDKAKTLLQQYMEAVHQGDPKQVEEMLDPNAQVVIGDKSVRGQNQIQQMVRKLHQHARIDIHVKDLKADGNNVHLTFSQKVEVNGRPERDEATATMVVDNGRAQYLQIEMDETFQRQLEK” is lower in protease stability score: -0.232 for the first, -0.341 for the second.

Going from “DEEAEKVYRKMLHALRTGNEHQLKKLMDPNVHVKVGDKHIHGREDVAQEQRTDRQRWRNDQQLVTFHAEGDQVEFTVEYVIEVNGQPDKDRYKAFFRFDNGKIKEFQVDIDPKELKEQLN” to “DDSEIRTLAKQLAHVIETGDHEHFRKMAPPDVRARIGETEYHGREQVAEALKQERRTADHVQVEDVKASGNNVTLIITQKENGRRDRFKMVFEFHNGKVKFVSQEKQ”, the protease stability score falls from 0.096 to -0.189.

First: DEENRKIAKKLVEAMHTNDEETLEKMFDPNVRFDVGDREVHGKEQWKREQHKKNREARFEIQRYTISYEGDKAVVRIHQVEDHNGQPREDTYVMHVEVHNGKVKRVVQRKDS
Second: DEKELKKVLKTVVEYLKNGKAERVVKHLHDDVQVIYDDEEVHGADKFKEMVEKFQKLGYKVEYKEVHVEGDTATVKVQVDAGGETAEFHVTYQATGQKVDRMEVKYDERAQKVIKHG
The protease stability score of the first is lower: -0.129 for the first, 1.14 for the second.

Going from “DEEDNKTAKKLAKTGDPDEFAEQADEDVHIVVGDFEVHGRDELRKLMKRLKDHIDHKEIKRLRVHNGHVDLKFKAVFNGQEMEVSVILTARNGKIKRLEFRVRDDHAHELLEHLLK” to “DENRLRHLAHHMVEVLKTGNEEEIERLMDENVRLTYGDKEVHGRENVRQYIRQLREEIDHFSVQEIDVSGDKVTIVFTFIVNGQRVRAVLKVRFHNGRIVEATIEYTDEDQKRRADS”, the protease stability score rises from 1.03 to 1.35.

Compared with “DQEKKATRFARKLIHDIRTNDEEHLVDLADPNVKVQYGDKSYHGREQFKKWWKDLMDQADHVDVKVRDLKVDGNKFVLVYSYVMNHNGQKREVEMNVSAKDKNGRINIQSIQMG”, “DEDDARKVRKLAKTNDWDELVHRFRDDVRFKVGNQRYSGRENAQTVAQELRKKVDHIRITSLHSTPGHVVLHMTMVVNGRKITVVIFIRMDNGRAVSFSLRVRDEEVKKHITQAFS” is lower in protease stability score: 0.301 for the first, 0.141 for the second.

First: DQEHVKRRADTAMKAIQNGDPDEAVKQMDPDAKMRVGDHEITGREDVRRYVETLHRRVDHNHILSLTHHGETVVFNAVVKVNGRNVTVNWVLKFHNGRLKQVDINPDEEKRFQS
Second: DNEAARSARRNLKQIERGNEHKVREMADKNAHVRVGDKDLHGREDISTWVKKLKEEMRVRFDLRRVNDKGSTVDLDVTLEMTVNGKPVTMKVTAKLSIHNGKIQSLIWNISDEQKEQRKG
The protease stability score of the first is lower: 0.079 for the first, 0.336 for the second.

First: DESAHKLVHDMMDAIRQNNPERVEQLADPNVKIEYGDEVIQGRENVSTTMKEILEKQRVEYNFKRVDDHNGQVRADVEVEVEHNGEPHRDKLIVHAERHNGRIRYVELQHDG
Second: DEHDEARKFADKFVKALRDGDETLVNKLVDPNAKFVIGDKDYHGRKAASTLMHEWKNRVDEQEVKIKRISVRNGRANVDVEMVMNVDGHRVHFRVIIYAERRDGRLRVVRIEAR
The protease stability score of the first is lower: -0.174 for the first, 1.52 for the second.

Going from “DEHRVQTHAEEFMKLLQRGDEKSLADLMDPNASVKIGDKVYHGREQIRHAMRELRERVDHIHVKDIQAQGNHINVDFVLNVNGKHQKYELHVDFSNGRVKSLSMQTS” to “DEEEVNKALERIRQVLEDGNPDENMKLMDKDVRVEIGDKTWHGRDEAHKAMRELNENVDHFQFDRLHHEGDRAKIDVHLEDNGKKDRVTFEFKIENGRIQHARVQTS”, the protease stability score falls from 1.69 to -0.335.

Compared with “DEEENKDVATTFVKAVEQGDPDKISHLFDENARAQIGDKEYHGREDLMRMAQEWRDRYDHIEIQDYKVHGNKVTAHFVMQHNGKRERRVMTAEWRNGQIHSMQVHSS”, “DEEFLKRLVKILRTGDPDKLVNNFDKNARLEYGDKTVEGKNRIKKFMKDLHDRVDHFDIESVTLEPNHLDFTMKAQINGRDVKVRVRVEVHNGKIKHATYKYTNEDQERNMKHVKS” is lower in protease stability score: 1.37 for the first, 0.561 for the second.

First: DDEANTVFREQLHQLEEGNHKEVAKNFDPNVRVSVGDRSIHGSEEVNTRIRRQAHESRIQVDHMSDDNSNGRVTMSADQVVNENGKPSTHRYKLTARVHNGKVKSMVITRDG
Second: EEEAAHQFNKWLSLMKHGNEHKASEMLDKDAHIKVGDKTLQGREDVQRDVRRRKEELKFSMTIVDYKDHGDKARLTVEQTNDHNGRPRTRRANVTVHVSNGRVKEIVINDDS
The protease stability score of the first is lower: -0.575 for the first, -0.265 for the second.

Going from “DEKKWEQWARHFNQLMKQNDPDTLMQLFDPNARVKYGDKEVHGRTQIVKMWQTLVEQVDHIRIKNYSVSGDHVVIEIIVVVNGQEVEFVFRARVHNGTIKSASIDYRNEEHYKRAQG” to “DEERRDLAHRIFEAWKRNDPDTLRNLIDPNAKMVVGEDVLRGDEQIVKHVQDVHNRINMKIDIKSVRVEGDKVIVHAEVTANVNGRPVRIEVTFVIKNHNGKVKKIVIDVDPRDQRKMDS”, the protease stability score falls from 0.264 to -0.13.

Going from “EEEAFDRAQQFVRAMETGDTTKLEQLADKDVRFDVGDKEVQGREEYSKTVHELKKEMRFRYEFKHYTVTGDEVDARVEFEYEHNGQPRRTQAKVTFIFQGDKLESINMKESQ” to “DEDQMEDLKRKWEKNDWRRFARNADPNVRVEVGDRRYHGRTDALRAMKIIEDTADRIQIDRVKSTNGKVTVDLVLVVNGNKIRARFEAVVHNGQVKHFTMKFRDKDDKRRFNEAMS”, the protease stability score rises from 0.146 to 0.582.

Compared with “DEQRQAEEWVDKLESELHDGDFTKFANMADENARIVIGDKEIHGRENLQEHAKELKHRVDHVEMHVRHLYVTNGTLTVDVDMVLNHNGQRDKRRVVIVATSENGKFRAQHVTYS”, “EEEKVKKVVKKLFEAVQKGDKKKLQELLHEDVEFQFGVKRVKGAEQYMRTVDELRQRGVQIEVKKYQVKDDKARMVTVVRYGDKTVTMTAEAEYEGGVLKRARVELTDEAKELVKKG” is lower in protease stability score: 1.05 for the first, 0.41 for the second.

First: KEEDIVKVAKKLAKIVEEGNPDELKKLLSPDLEVKYGDKERHGADELVKVLKKLLRKGVRIQVKELQVEGNTATTVLEYQHGDKKHDVEIKAKLTGGRLKKLEVRFSPKAQEIVTQG
Second: DEHAEDLFRQLKEAEDTGDEDHFRRLVDPNAHFEIGNKHVHGREERATQMKQQKKQIRVEIKSMDYRVDGEKVEARVDATYNFNGRPDRMHIVIDIEFHNGRVTNARYRLDEEDLKRVEK
The protease stability score of the first is higher: 2.02 for the first, 0.308 for the second.

First: DEEVLKVAHDWFENVTQGDPDKLSRLMDKDARVNVGEKQYHGREEIMRQHERENKEAEVTFQKMDFKVTGDRAVVNVRVDVNINGQPFEVTFIFKLEVHNGRIKQIEMDFSEEQWDKLRR
Second: DSHLEHKAHEWVKAVNENDPDRLVQLMDKDVKIDVGDKKFSGRENYATEVKKEQDEARVEWKDVKLSADNGKLELQADVVRRHNGQPQRWKVENIYTDKNGVAKYLTNKSKP
The protease stability score of the first is higher: -0.211 for the first, -0.423 for the second.

First: DEKTAQDTAKEIVKYWEQGDFEKLNKNADKNVRIRYGDKDYSGRDNFQELQKKFREHVDHVEVHSVDVEGDKIRVVIMFVVNGKHMVMEFVVDYHNGHLKSVSVDARNPDQKKRADK
Second: DSKELARRFHTELLENLRHNDSERLRRLLDEDARVHVGDKEVHGREQFADEQTKIMEHFDRVELRIREVTIEEGRVKVLIHFDADNNGEKHTDNSEVTFDNQGDKLTNKTQHES
The protease stability score of the first is higher: 0.46 for the first, -0.13 for the second.

Going from “EEREVEEMQKILQHGDPKEFEDNMDPNADVEIGDQQYRGRETIAQVLQKFRDQIDHRHIEEVHIHGDHAVIDVVATVNGQDLKYIIVVKVENGKLKSARLQATDPRVKHRMQEVYE” to “DEDLAKRFVTFIKIMLNGDPDKLEKMMDENATVNVGDRRLTGHETIAKDLHRLINESRVHIQLRDFDVRPGRVELEFEAERKHDGRPHTSRFIVIVKDHNGKMVKIVVKQTK”, the protease stability score rises from 0.32 to 1.02.
